Results published in US20240166750A1.
Each block holds one substance with its values, some of them ahead of it.

Key:
[1] = target: Recombinant human FcγRIIIa-V158 (human) (UniProt P08637); experiment: SPR Biacore T200; antibody on protein A, FcγRIIIa-V158 analyte; 1:1 kinetic fit
[2] = target: Recombinant human FcγRIIIa-V158 (human) (UniProt P08637); experiment: SPR Biacore T200; antibody on Protein A, FcγRIIIa-V158 analyte; 1:1 fit
[3] = target: Recombinant human FcγRIIIa-V158 (human) (UniProt P08637); experiment: SPR Biacore T200
[4] = target: FcγRIIIa (V158) expressed on engineered Jurkat effector cells (UniProt P08637); experiment: cell-based or functional assay
[5] = target: Recombinant human FcγRIIIa-V158 (human) (UniProt P08637); experiment: SPR Carterra LSA; Fc on protein AG, hFcγRIIIa-V158 analyte; 1:1 kinetic fit
[6] = target: biotinylated recombinant human FcRn (human) (UniProt P55899); experiment: FcRn affinity chromatography, pH gradient 5.5-9.5
[7] = target: biotinylated recombinant human FcRn (human) (UniProt P55899); experiment: SPR Biacore T200, pH 7.4; steady-state RU at 1000 nM antibody; SD 5.4 RU
[8] = target: biotinylated recombinant human FcRn (human) (UniProt P55899); experiment: SPR Biacore T200, pH 6.0; biotin-FcRn on CAP chip, antibody analyte; bivalent fit, apparent KD; SD 10 nM
[9] = target: Recombinant human HPC4-tagged FcγRIIIa-V158 (human) (UniProt P08637); experiment: SPR Biacore T200; receptor captured by anti-HPC4, antibody analyte; steady-state RU
[10] = target: biotinylated recombinant human FcRn (human) (UniProt P55899); experiment: SPR Biacore T200, pH 7.4; steady-state RU at 1000 nM antibody; SD 5.6 RU
[11] = target: biotinylated recombinant human FcRn (human) (UniProt P55899); experiment: SPR Biacore T200, pH 6.0; biotin-FcRn on CAP chip, antibody analyte; bivalent fit, apparent KD; SD 47 nM
[12] = target: Recombinant human FcγRIIIa-V158 (human) (UniProt P08637); experiment: SPR Biacore T200; antibody on Protein A, FcγRIIIa-V158 analyte; 1:1 fit; remark: listed apart in the source
[13] = target: biotinylated recombinant human FcRn (human) (UniProt P55899); experiment: SPR Biacore T200, pH 7.4; steady-state RU at 1000 nM antibody; SD 0.2 RU
[14] = target: biotinylated recombinant human FcRn (human) (UniProt P55899); experiment: SPR Biacore T200, pH 6.0; biotin-FcRn on CAP chip, antibody analyte; bivalent fit, apparent KD; SD 700 nM
[15] = target: biotinylated recombinant human FcRn (human) (UniProt P55899); experiment: SPR Biacore T200, pH 6.0; biotin-FcRn on CAP chip, antibody analyte; bivalent fit, apparent KD; SD 240 nM
[16] = target: biotinylated recombinant human FcRn (human) (UniProt P55899); experiment: SPR Biacore T200, pH 7.4; steady-state RU at 1000 nM antibody; SD 2.1 RU
[17] = target: biotinylated recombinant human FcRn (human) (UniProt P55899); experiment: SPR Biacore T200, pH 7.4; steady-state RU at 1000 nM antibody; SD 3.3 RU
[18] = target: biotinylated recombinant human FcRn (human) (UniProt P55899); experiment: SPR Biacore T200, pH 6.0; biotin-FcRn on CAP chip, antibody analyte; bivalent fit, apparent KD; SD 260 nM

Substance: DE (R292C/V302C) antibody specific for protein 5 (TPP-35708)
- Fold KD WT [1]: 31 fold
- Kd [1]: 3.79 nM
- koff [1]: 0.00832 s⁻¹
- kon [1]: 2.2e+06 M⁻¹ s⁻¹

Substance: DE (S239D/I332E) antibody specific for protein 1 (human IgG1)
- Kd [2]: 14 nM
- koff [2]: 0.006 s⁻¹

Substance: DE (S239D/I332E) antibody specific for protein 1 containing oligomannose (human IgG1)
- Kd [2]: 6 nM
- koff [2]: 0.002 s⁻¹
- kon [2]: 400000 M⁻¹ s⁻¹
- fold higher affinity than the unmodified DE antibody [3]: 2.3 fold
- ADCC activity (ADCC reporter gene assay), fold vs DE antibody without modification [4]: 1.4 fold

Substance: Fc fragment S298C, with kifunensine (from UniProt P01857 104-330)
- Kd [5]: 24 nM

Substance: LS antibody specific for protein 3, with kifunensine
- pH of elution [6]: 7.81 pH
- RU (steady state, pH 7.4) [7]: 16.6 RU
- Kd [8]: 658 nM
- Fold Change (Kifunensine Treated vs Untreated) in FcγRIIIa Binding Affinity [9]: 1.75 fold
- Fold Change versus WT in FcγRIIIa Binding Affinity with Kifunensine Treatment [9]: 1.85 fold

Substance: LS antibody specific for protein 3, without kifunensine
- pH of elution [6]: 7.84 pH
- RU (steady state, pH 7.4) [10]: 19.4 RU
- Kd [11]: 534 nM

Substance: WT antibody specific for protein 1 containing oligomannose (human IgG1)
- Kd [2]: 256 nM
- koff [2]: 0.017 s⁻¹
- kon [2]: 70000 M⁻¹ s⁻¹

Substance: WT antibody specific for protein 3, without kifunensine
- pH of elution [6]: 7.07 pH
- RU (steady state, pH 7.4) [13]: 0.8 RU
- Kd [15]: 2000 nM

Substance: WT antibody specific for protein 5 (TPP-23424)
- Kd [1]: 118 nM

Continued, values first:

- Kd [5]: 230 nM
Substance: Fc fragment S298A, no kifunensine (from UniProt P01857 104-330)

- Kd [5]: 21 nM
Substance: Fc fragment S298A, with kifunensine (from UniProt P01857 104-330)

- Kd [5]: 86 nM
Substance: Fc fragment S298C, no kifunensine (from UniProt P01857 104-330)

- Kd [2]: 540 nM
- koff [2]: 0.031 s⁻¹
- kon [2]: 60000 M⁻¹ s⁻¹
- Kd [12]: 557 nM
- koff [12]: 0.107 s⁻¹
- kon [12]: 190000 M⁻¹ s⁻¹
Substance: WT antibody specific for protein 1 (human monoclonal IgG1, mAb A)

- pH of elution [6]: 7.01 pH
- RU (steady state, pH 7.4) [13]: 0.5 RU
- Fold Change (Kifunensine Treated vs Untreated) in FcγRIIIa Binding Affinity [9]: 1.76 fold
- Fold Change versus WT in FcγRIIIa Binding Affinity with Kifunensine Treatment [9]: 1.76 fold
- Kd [14]: 3040 nM
Substance: WT antibody specific for protein 3, with kifunensine

- pH of elution [6]: 7.68 pH
- Fold Change (Kifunensine Treated vs Untreated) in FcγRIIIa Binding Affinity [9]: 2.88 fold
- Fold Change versus WT in FcγRIIIa Binding Affinity with Kifunensine Treatment [9]: 1.26 fold
- Kd [15]: 1210 nM
- RU (steady state, pH 7.4) [16]: 9 RU
Substance: YTE antibody specific for protein 3, with kifunensine

- pH of elution [6]: 7.74 pH
- RU (steady state, pH 7.4) [17]: 10.7 RU
- Kd [18]: 1270 nM
Substance: YTE antibody specific for protein 3, without kifunensine

- fold increase in receptor binding compared to DE antibody [3]: 3.5 fold
- ADCC activity (ADCC reporter gene assay), fold vs DE antibody without modification [4]: 3.2 fold
- Kd [12]: 4 nM
- koff [12]: 0.003 s⁻¹
- kon [12]: 750000 M⁻¹ s⁻¹
Substance: afucosylated DE (S239D/I332E) antibody specific for protein 1 (human IgG1)

- Fold KD WT [1]: 8 fold
- Kd [1]: 14.9 nM
- koff [1]: 0.00925 s⁻¹
- kon [1]: 622000 M⁻¹ s⁻¹
Substance: afucosylated antibody specific for protein 5 (Creative Biolabs)

- Kd [2]: 8 nM
- koff [2]: 0.004 s⁻¹
- kon [2]: 480000 M⁻¹ s⁻¹
- fold higher affinity than the unmodified DE antibody [3]: 1.8 fold
Substance: hypergalactosylated DE (S239D/I332E) antibody specific for protein 1 (human IgG1)
